Data: publication PMC6084945, “SURGE complex of Plasmodium falciparum in the rhoptry-neck (SURFIN4.2-RON4-GLURP) contributes to merozoite invasion” (PLoS ONE, 2018)

Target: the molecule itself
Assay: non-reducing SDS-PAGE; purified recombinant protein eluted from the nickel resin, Coomassie stained gel with and without 2-mercaptoethanol; dimer size band under non-reducing conditions

B1: recombinant SURFIN4.2 extracellular domain (position 1-746), N-terminal 6x histidine-tagged (domain or fragment)
chain: MLFVVELDSRLEKSADKRISVERFRKIFEIYVEDKLEELKRSGSEKYDKDCRDFNYFIDDVKDVFINNDLVKIPVKVRKSIWETHVDKNLPKLMKNTTSCKCIRKEHNYNKEYRDMTRTLEDFCEEKTRKLEIIYQKDYDESLYVNFNEWINKKKEDILKEYEKLSNKDKYKHLLKISETCDLNHVDKLFLNISSEDMKKMKEDVKKQHLEVKVRPPVNEPIDDRGKEDALSRGGKSIILNKEENSPTEEITTEYNPVSEMGVGTTIAHSEPGPKTVNTEVRNVLRSDGKISDQGSQKSPPKELSNKQMTPAQRKNVPHFVERRGYGNSHVRGNALKKISNGDDNYKSPSSNYIEVDCAEDKYFLLEDGTNQSENSCKTKYNYFVSNDYDGTGSAIYSTDQVPSREEIKSPDSLSTLDARGSTHNLNVSNEGNPLEGGEEKNNVKISEQNGRNLESSVGTDKGSDKNEEEVAATCDPNDRNCFDGRYINVDYIRGLLKGKRSGSDGRSNIKHIISNNFDDSNMIFPTFNFDFDILKAEEEVLPVNNSDIIYGHEEVEETTQEGASIFEKHSHTSSQQNDSSASGNKYRMLSTTMELPNQQEVFGLYSPVSRTLDSAMSFLRSIISLSSAPVSRSEGQSKESKRVEISTTVQDPIGYRTSPLQMNAHSVGAGINVSSILSMLGLSSGQVRRSGGQGSETYIVGTSQSGFHKNEVIPSIKDKSGKTQIVSNEKGGIFSKGITSMMSSL
**Q.** For B1, which “stoichiometry N” value is on record?
**A.** The value was 2.
